In the supplement of paper PMC11865577:

Columns and labels:
Experiment in all cases: pull-down binding Z-score (relative to library population); higher = stronger binding
TO-N3 (biotin conjugate) = settings: RNA library: Library-2
How it was run: (§1)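 Biotin-conjugated small molecule (100 pmol) on streptavidin beads was incubated with 1 μg of heat-folded Cy5- or Cy3-end-labelled RNA library in phosphate/NaCl/KCl buffer at 25 °C for 60 min. Following three washes, RNA was eluted with hot SDS and hybridised at 55.5 °C for 20 h to a DNA barcode microarray. The binding value is a Z-score computed from the library mean and standard deviation, after subtraction of beads without compound and averaging of barcoded replicate probes with the highest and lowest excluded.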

[1] = test system: G-clamp-N3 (biotin conjugate); settings: RNA library: Library-1 (pre-miRNA loops + repeats)
How it was run: as §1

[2] = test system: TO-3-N3 (biotin conjugate); settings: RNA library: Library-2
How it was run: as §1

[3] = test system: TO-N3-2 (biotin conjugate); settings: RNA library: Library-2
How it was run: as §1

[4] = test system: TO-3-N3-2 (biotin conjugate); settings: RNA library: Library-2
How it was run: as §1

## UCUGCUUUAUUUCAUCAAAGCAGA [hsa-mir-4773-1]
TO-N3 (biotin conjugate)
  pull-down binding Z-score: -1.36
[1]
  pull-down binding Z-score: -0.484
[2]
  pull-down binding Z-score: -0.916
[3]
  pull-down binding Z-score: -1.41
[4]
  pull-down binding Z-score: -0.676

## UCUGCUUUGAUGAAAUAAAGCAGA [hsa-mir-4773-2]
TO-N3 (biotin conjugate)
  pull-down binding Z-score: -0.206
[1]
  pull-down binding Z-score: -0.541
[2]
  pull-down binding Z-score: -0.145
[3]
  pull-down binding Z-score: -1.05
[4]
  pull-down binding Z-score: -0.423

## UCUGGGGAGAGAGUCCUCUUUUCAGC [hsa-mir-8082]
TO-N3 (biotin conjugate)
  pull-down binding Z-score: 0.571
[1]
  pull-down binding Z-score: -0.804
[2]
  pull-down binding Z-score: 0.432
[3]
  pull-down binding Z-score: 0.614
[4]
  pull-down binding Z-score: -0.234

## UCUGUUGCUUGAAAGAAGAGA [hsa-mir-526a-1]
TO-N3 (biotin conjugate)
  pull-down binding Z-score: 0.922
[1]
  pull-down binding Z-score: 1.67
[2]
  pull-down binding Z-score: 0.85
[3]
  pull-down binding Z-score: 0.215
[4]
  pull-down binding Z-score: -0.154

## UCUGUUGUCUGAAAGAAAACA [hsa-mir-518b_518c]
TO-N3 (biotin conjugate)
  pull-down binding Z-score: -0.285
[1]
  pull-down binding Z-score: -0.569
[2]
  pull-down binding Z-score: -0.441
[3]
  pull-down binding Z-score: 0.0545
[4]
  pull-down binding Z-score: 0.0546

## UCUGUUUGUUUUCUCUUAAACA [hsa-mir-519d]
TO-N3 (biotin conjugate)
  pull-down binding Z-score: -0.828
[1]
  pull-down binding Z-score: -0.0316
[2]
  pull-down binding Z-score: -0.418
[3]
  pull-down binding Z-score: -0.847
[4]
  pull-down binding Z-score: -0.553

## UCUGUUUUAAGUAACAGA [hsa-mir-7705]
TO-N3 (biotin conjugate)
  pull-down binding Z-score: -1.32
[1]
  pull-down binding Z-score: 0.244
[2]
  pull-down binding Z-score: -0.812
[3]
  pull-down binding Z-score: -1.85
[4]
  pull-down binding Z-score: -0.214

## UCUUAGACUAUUACAAGA [hsa-mir-3672]
TO-N3 (biotin conjugate)
  pull-down binding Z-score: 0.614
[1]
  pull-down binding Z-score: -0.633
[2]
  pull-down binding Z-score: 0.922
[3]
  pull-down binding Z-score: -0.526
[4]
  pull-down binding Z-score: 0.0159

## UCUUAGCACGGGGUCUAAGG [hsa-mir-4747]
TO-N3 (biotin conjugate)
  pull-down binding Z-score: -0.33
[1]
  pull-down binding Z-score: 0.0593
[2]
  pull-down binding Z-score: -0.188
[3]
  pull-down binding Z-score: -0.257
[4]
  pull-down binding Z-score: -0.0231

## UCUUCCCAAAGUUGAGAAAA [hsa-mir-320d-1]
TO-N3 (biotin conjugate)
  pull-down binding Z-score: -0.746
[1]
  pull-down binding Z-score: -1.32
[2]
  pull-down binding Z-score: -0.611
[3]
  pull-down binding Z-score: -0.758
[4]
  pull-down binding Z-score: -0.407

## UCUUCCCAGAAUUGGGAAAA [hsa-mir-320c-2]
TO-N3 (biotin conjugate)
  pull-down binding Z-score: -1.33
[1]
  pull-down binding Z-score: -0.574
[2]
  pull-down binding Z-score: -0.813
[3]
  pull-down binding Z-score: -1.68
[4]
  pull-down binding Z-score: -0.72

## UCUUCCCAGAGUCAGGAAAA [hsa-mir-320c-1]
TO-N3 (biotin conjugate)
  pull-down binding Z-score: -0.0041
[1]
  pull-down binding Z-score: -1.1
[2]
  pull-down binding Z-score: -0.17
[3]
  pull-down binding Z-score: 0.191
[4]
  pull-down binding Z-score: -0.0416

## UCUUCCCGGAGUCGGGAAAA [hsa-mir-320a]
TO-N3 (biotin conjugate)
  pull-down binding Z-score: -0.187
[1]
  pull-down binding Z-score: 1.85
[2]
  pull-down binding Z-score: -0.0669
[3]
  pull-down binding Z-score: -0.901
[4]
  pull-down binding Z-score: -0.307

## UCUUCUUGGAGUCAGGAAAA [hsa-mir-320d-2]
TO-N3 (biotin conjugate)
  pull-down binding Z-score: -0.663
[1]
  pull-down binding Z-score: -0.411
[2]
  pull-down binding Z-score: -0.553
[3]
  pull-down binding Z-score: -0.514
[4]
  pull-down binding Z-score: -0.458

## UCUUCUUUUGGAAGGAAGA [hsa-mir-3122]
TO-N3 (biotin conjugate)
  pull-down binding Z-score: -0.591
[1]
  pull-down binding Z-score: 0.729
[2]
  pull-down binding Z-score: -0.175
[3]
  pull-down binding Z-score: -1.53
[4]
  pull-down binding Z-score: -0.532

## UCUUGAAUUUUUGCCAGUUCAAGA [hsa-mir-5197]
TO-N3 (biotin conjugate)
  pull-down binding Z-score: -1.33
[1]
  pull-down binding Z-score: 0.24
[2]
  pull-down binding Z-score: -0.956
[3]
  pull-down binding Z-score: -1.38
[4]
  pull-down binding Z-score: -0.517

## UCUUGGUGCCACCAUUGAGAACGCCAGGA [hsa-mir-492]
TO-N3 (biotin conjugate)
  pull-down binding Z-score: -0.279
[1]
  pull-down binding Z-score: -1.02
[2]
  pull-down binding Z-score: -0.644
[3]
  pull-down binding Z-score: 0.868
[4]
  pull-down binding Z-score: -0.506

## UCUUUCAUUUUGGAUUUGACU [hsa-mir-766]
TO-N3 (biotin conjugate)
  pull-down binding Z-score: -0.0798
[1]
  pull-down binding Z-score: -0.725
[2]
  pull-down binding Z-score: 0.116
[3]
  pull-down binding Z-score: -0.612
[4]
  pull-down binding Z-score: -0.03

## UCUUUGGUAAUAAGGUUUGGCAAAGA [hsa-mir-576]
TO-N3 (biotin conjugate)
  pull-down binding Z-score: 0.862
[1]
  pull-down binding Z-score: 1.47
[2]
  pull-down binding Z-score: 1.04
[3]
  pull-down binding Z-score: -0.0599
[4]
  pull-down binding Z-score: 0.625

## UGAAAGGUUUUUUCUCUCA [hsa-mir-4797]
TO-N3 (biotin conjugate)
  pull-down binding Z-score: -0.402
[1]
  pull-down binding Z-score: 0.0116
[2]
  pull-down binding Z-score: -0.332
[3]
  pull-down binding Z-score: -0.918
[4]
  pull-down binding Z-score: -0.248

## UGAACAGUGAUUGGUUUCCGCUUUGUUCA [hsa-mir-27b]
TO-N3 (biotin conjugate)
  pull-down binding Z-score: 0.133
[1]
  pull-down binding Z-score: -0.672
[2]
  pull-down binding Z-score: 0.138
[3]
  pull-down binding Z-score: -0.317
[4]
  pull-down binding Z-score: 0.275

## UGAAGAAGAGUAUUGAUUGUGCUGUUCG [hsa-mir-6788]
TO-N3 (biotin conjugate)
  pull-down binding Z-score: 0.494
[1]
  pull-down binding Z-score: 0.592
[2]
  pull-down binding Z-score: 0.425
[3]
  pull-down binding Z-score: 0.16
[4]
  pull-down binding Z-score: -0.00107

## UGAAGCCCCGAGAUGCCUCACGUCUUCA [hsa-mir-6802]
TO-N3 (biotin conjugate)
  pull-down binding Z-score: 0.243
[1]
  pull-down binding Z-score: -1.85
[2]
  pull-down binding Z-score: 0.00057
[3]
  pull-down binding Z-score: 0.573
[4]
  pull-down binding Z-score: -0.123

## UGAAGGUCACCAUGUUCUCCUUG [hsa-mir-3187]
TO-N3 (biotin conjugate)
  pull-down binding Z-score: 0.145
[1]
  pull-down binding Z-score: -0.816
[2]
  pull-down binding Z-score: 0.0716
[3]
  pull-down binding Z-score: -0.229
[4]
  pull-down binding Z-score: -0.354

## UGAAUAUGUAAUAUAAGUGUAUUG [hsa-mir-450b]
TO-N3 (biotin conjugate)
  pull-down binding Z-score: 0.261
[1]
  pull-down binding Z-score: 0.397
[2]
  pull-down binding Z-score: 0.214
[3]
  pull-down binding Z-score: -0.284
[4]
  pull-down binding Z-score: 0.32

## UGAAUUGAAAUGCGUUACAUUCA [hsa-mir-95]
TO-N3 (biotin conjugate)
  pull-down binding Z-score: -0.0852
[1]
  pull-down binding Z-score: -0.13
[2]
  pull-down binding Z-score: 0.0702
[3]
  pull-down binding Z-score: 0.088
[4]
  pull-down binding Z-score: -0.0666

## UGACUACUUCGAAAAUGGGAAGUAGACA [hsa-mir-7849]
TO-N3 (biotin conjugate)
  pull-down binding Z-score: 0.00324
[1]
  pull-down binding Z-score: 3.04
[2]
  pull-down binding Z-score: 0.0977
[3]
  pull-down binding Z-score: -0.497
[4]
  pull-down binding Z-score: -0.277

## UGACUCAGAUCU [hsa-mir-759]
TO-N3 (biotin conjugate)
  pull-down binding Z-score: -0.271
[1]
  pull-down binding Z-score: -1.38
[2]
  pull-down binding Z-score: -0.321
[3]
  pull-down binding Z-score: -0.155
[4]
  pull-down binding Z-score: -0.249

## UGAGACCUGGUGCAGAACGGGAAGGCGA [hsa-mir-551b]
TO-N3 (biotin conjugate)
  pull-down binding Z-score: 1.23
[1]
  pull-down binding Z-score: 1.4
[2]
  pull-down binding Z-score: 0.308
[3]
  pull-down binding Z-score: 1.76
[4]
  pull-down binding Z-score: 0.479

## UGAGCAGGCCCAGAACCCAGCUCGUGCUCA [hsa-mir-6794]
TO-N3 (biotin conjugate)
  pull-down binding Z-score: 0.56
[1]
  pull-down binding Z-score: 0.169
[2]
  pull-down binding Z-score: 0.387
[3]
  pull-down binding Z-score: 0.805
[4]
  pull-down binding Z-score: -0.114

## UGAGCAGGGUCCACACCAAGUCGUGUUCA [hsa-mir-27a]
TO-N3 (biotin conjugate)
  pull-down binding Z-score: 1.14
[1]
  pull-down binding Z-score: -0.575
[2]
  pull-down binding Z-score: 0.869
[3]
  pull-down binding Z-score: 1.09
[4]
  pull-down binding Z-score: 0.465

## UGAGCAUUCUAGCAGCAGUUUGAUGAUCA [hsa-mir-6516]
TO-N3 (biotin conjugate)
  pull-down binding Z-score: -0.394
[1]
  pull-down binding Z-score: -0.0961
[2]
  pull-down binding Z-score: -0.57
[3]
  pull-down binding Z-score: -0.196
[4]
  pull-down binding Z-score: -0.419

## UGAGCAUUUUUACUGAAUUGCCA [hsa-mir-6715a]
TO-N3 (biotin conjugate)
  pull-down binding Z-score: -0.738
[1]
  pull-down binding Z-score: 0.49
[2]
  pull-down binding Z-score: -0.582
[3]
  pull-down binding Z-score: -0.686
[4]
  pull-down binding Z-score: -0.268

## UGAGCUGUGAUGUUGCUCUCGAGCUGG [hsa-mir-769]
TO-N3 (biotin conjugate)
  pull-down binding Z-score: 1.02
[1]
  pull-down binding Z-score: -0.872
[2]
  pull-down binding Z-score: 0.732
[3]
  pull-down binding Z-score: 1.27
[4]
  pull-down binding Z-score: 0.336

## UGAGGAGCUUAGCAAGUAGCUAAGGCCAGA [hsa-mir-4517]
TO-N3 (biotin conjugate)
  pull-down binding Z-score: 0.339
[1]
  pull-down binding Z-score: 0.384
[2]
  pull-down binding Z-score: -0.194
[3]
  pull-down binding Z-score: 1.1
[4]
  pull-down binding Z-score: -0.393

## UGAGGAGUAGAACACUCCUUA [hsa-mir-491]
TO-N3 (biotin conjugate)
  pull-down binding Z-score: -0.649
[1]
  pull-down binding Z-score: 0.0146
[2]
  pull-down binding Z-score: -0.282
[3]
  pull-down binding Z-score: -0.939
[4]
  pull-down binding Z-score: -0.448

## UGAGGUACUUCCUUC [hsa-mir-1205]
TO-N3 (biotin conjugate)
  pull-down binding Z-score: 0.104
[1]
  pull-down binding Z-score: -0.28
[2]
  pull-down binding Z-score: 0.111
[3]
  pull-down binding Z-score: -0.169
[4]
  pull-down binding Z-score: -0.247

## UGAGGUUUACUAUGGAACCUCA [hsa-mir-4465]
TO-N3 (biotin conjugate)
  pull-down binding Z-score: -0.958
[1]
  pull-down binding Z-score: 0.714
[2]
  pull-down binding Z-score: -0.566
[3]
  pull-down binding Z-score: -1.53
[4]
  pull-down binding Z-score: -0.526
